From patent US20240124857A1, “COMPOSITION FOR GUT HEALTH” (DUPONT NUTRITION BIOSCIENCES APS, priority 2021, published 2024)

Key:
Format in all cases: biochemical
[1] = ATPase activity at 0.05 ppm enzyme on 0.1 mM ATP (absorbance 620 nm); conditions: for Activity on ATP (absorbance at 620 nm, blank subtracted), pH 5.0: 50 mM IVIES buffer pH 5; for Activity on ATP (absorbance at 620 nm, blank subtracted), pH 6.0: 50 mM IVIES buffer pH 6
Protocol: Enzyme activity towards ATP or ADP at pH 3 to 9: The ability of candidate enzymes to degrade ATP or ADP to AMP and free phosphate (Pi) was measured using a standard malachite green phosphate detection kit (Sigma Aldrich cat no. MAK307). The enzyme reactions were carried out in 96-well plates with a total volume of 150 μL and contained 250 μM of a substrate, 50 mM of a buffer, 5 mM CaCl2, and a variable concentration of enzyme. The substrate was ATP or ADP. The buffer was glycine (pH 3), acetate (pH 4, 4.5, 5), bis-Tris (pH 5.5, 6, 6.5), or Tris (pH 7, 8, 9). The concentration of enzyme varied from about 1 μg/mL to 1 ng/mL and was adjusted based on the activity of the enzyme so that the amount of phosphate released during the assay was with the dynamic range of the assay (5-100 μM phosphate). The enzyme concentration was determined by the absorbance at 280 nm and using the predicted molecular weight and molar extinction coefficient to calculate the concentration. The enzyme reaction was initiated by the addition of 15 μL enzyme with 135 μL of the other reaction components such that the final reaction composition was as previously described. The reaction was stopped after 5 min by mixing 80 μL of the reaction mixture with 20 μL of the malachite green working reagent. The malachite green working reagent was prepared according to the manufacturer's protocol by mixing 100 parts reagent A with 1 part reagent B. Phosphate standard solutions (0-80 μM) and a negative control reaction without enzyme were also mixed with the malachite green working reagent. All samples were tested in duplicate. The malachite green reaction mixture was allowed to rest at room temperature for 45-60 min and the absorbance at 620 nm was measured. Lastly, the absorbance of the phosphate standards were used to convert the absorbance readings of each sample into phosphate concentrations and the negative control was subtracted from each reaction.
Enzymes of interest were assayed against ATP substrate. The ATPase activity was measured at 0.05 ppm concentration in 50 mM IVIES buffer pH 6 and pH 5 with 0.1 mM ATP as substrate as described in Example 1. Commercial potato apyrase was used as reference. The absorbance at 620 nm was measured and the absorbance of a blank sample (water) was subtracted from each sample.

[2] = pH profile of enzymes on 1 mM ATP; conditions: 50 mM trisodium citrate/citric acid, 5 mM CaCl2, relative to the highest value
Protocol: The pH profile of additional enzymes of interest was assayed using 1 mM ATP, in 50 mM trisodium citrate/citric acid buffer with 5 mM CaCl2. Absorbance was read at 620 nm and all values were set relative to the highest one. Commercial potato apyrase was used as reference. […]

[3] = Relative activity on ATP of CRC22110 single-site variants; conditions: in comparison to CRC22110 wild type

Row | Molecule | Activity on ATP (absorbance at 620 nm, blank subtracted), pH 5.0 [1] | Activity on ATP (absorbance at 620 nm, blank subtracted), pH 6.0 [1] | Relative activity on ATP, pH 3 [2] | Relative activity on ATP, pH 3.5 [2] | Relative activity on ATP, pH 4 [2] | Relative activity on ATP, pH 4.5 [2] | Relative activity on ATP, pH 5 [2] | Relative activity on ATP, pH 5.5 [2] | Relative activity on ATP, pH 6 [2] | Relative activity on ATP, pH 6.5 [2] | Relative activity (%) on ATP [3]
1 | CRC22104: GDA1/CD39 family enzyme, accession TAL58835.1, SEQ ID NO:7 (protein, listed as Legionella sp.) IEQDPCQEKQCMIVVDAGSTGSRLHFYTYDTDETNSPINIEEIWSKRIKPGISHVEANRSSIDAYLVTLLAGTPHSNHVPVYFYATAGMRLLPAAKQKLIYQEIKFWFAQQNQWRLMDAKTIYGSQEALYDWLAVNHQLGTLQSVQTKSVGVMDMGGASVQIVFPVQNNPDLKNNTLAEFNLYGQHIRLAVRSFLGLGQTEMSHQFLNYAPCFANNYPLPDGFLGEGDALSCVEEVASLMNGVHSVNKEIQPLLAANPVNIWYAIGGLSFLADNSVIHFNNYQLTNEQLLQQVDSKICHQEWDVLDEQFPNEEYLYQFCLLSAYYYALMVEGYGLLPNETINYLPSSQNLDWTIGVVLYPRLTVLQ | 0.05 | 0.10 | 0.0 | 0.0 | 0.0 | 0.3 | 0.8 | 0.9 | 1.0 | 1.0 | –
2 | CRC25100: Acid phosphatase (Class A), internal database, SEQ ID NO:24 (protein, environmental sample) GENSGFLSPETSPNSLEILPPPPSEGSIAFLNDKANYDIGHTLKNEGRLAQAVSDANYKNLTDAFSKAFGETISEQNTPALYSLLQNVLQDSHDFAMRAAKDHYKRVRPFVIYKDHTCTPAEDTKMAKTGSYPSGHASFGWATALVLSEINPARETEILKRGYEFGQSRVICGAHWQSDVDSGRIMGAAVVASLHNNSDFISALAKAKEEFRKK | 1.11 | 0.90 | 0.0 | 0.0 | 0.1 | 0.4 | 0.8 | 1.0 | 1.0 | 0.7 | –
3 | CRC25089: Acid phosphatase (Class A), accession WP_217352265.1, SEQ ID NO:22 (protein, listed as Paraburkholderia bonniea) AGSDGFLTAETAPSSLAILPPPPAENTVAFLNDKANYEIGRSLKNDARVALAASDANCKNINAIFSSAFGREISEEKTPKLYRLLLGVLQDSHDHAMKSAKNHYMRVRPFVMYGDKTCTPEEDNKMKNTGSYPSGHASFGWAAALVLSEINPERTTEILRRGYDFGQSRVVCGAHWQSDVDNGRLMGAAVVADLHNNDKFIKALEAAKAEFKENTPGN | 0.24 | 0.05 | 0.8 | 1.0 | 0.9 | 0.9 | 0.8 | 0.7 | 0.3 | 0.2 | –
4 | CRC22110v8: single-site variant F205A of CRC22110 (SEQ ID NO: 9) (protein, listed as Gallaecimonas xiamenensis) ADKPACRAVFDAGSSGTRLFLYVQQEGGWQPWPGAKLGALADPVRQHQGPKAMAALAADLANSLEALRQDGPTNSEGQPRWQGFDWQQACRLQSVSVLATAGMRLAEQQDPVASVALWQEVQQALAGLLGPAVAIDARTLTGFEEGFYAWLAARARLGRSDMGIVEMGGASSQVAFPCPACDRADDAVQQVRLEGQTLDFYSYSALGLGQDEAPKVLGVPHACRYGAGVKDPNWQLGQCQAQLPLTLGRALKDPYNFQGQGQGGYRQVPTEKAGVKDWLLTGAFQYNTPDQLDSCCLNQGQCYQPSTACFRVAYLPLYLDSLGVDPHSPDLDVSWTLGAVLCRNEQCLAPSKPPCRWRKAGCLAPSVGDGRPEGRPGQQPGGVQHRQH | – | – | – | – | – | – | – | – | – | – | 68%
5 | CRC22110v2: single-site variant L206A of CRC22110 (SEQ ID NO: 9) (protein, listed as Gallaecimonas xiamenensis) ADKPACRAVFDAGSSGTRLFLYVQQEGGWQPWPGAKLGALADPVRQHQGPKAMAALAADLANSLEALRQDGPTNSEGQPRWQGFDWQQACRLQSVSVLATAGMRLAEQQDPVASVALWQEVQQALAGLLGPAVAIDARTLTGFEEGFYAWLAARARLGRSDMGIVEMGGASSQVAFPCPACDRADDAVQQVRLEGQTLDFYSYSFAGLGQDEAPKVLGVPHACRYGAGVKDPNWQLGQCQAQLPLTLGRALKDPYNFQGQGQGGYRQVPTEKAGVKDWLLTGAFQYNTPDQLDSCCLNQGQCYQPSTACFRVAYLPLYLDSLGVDPHSPDLDVSWTLGAVLCRNEQCLAPSKPPCRWRKAGCLAPSVGDGRPEGRPGQQPGGVQHRQH | – | – | – | – | – | – | – | – | – | – | 60%
6 | CRC22110v9: single-site variant F205L of CRC22110 (SEQ ID NO: 9) (protein, listed as Gallaecimonas xiamenensis) ADKPACRAVFDAGSSGTRLFLYVQQEGGWQPWPGAKLGALADPVRQHQGPKAMAALAADLANSLEALRQDGPTNSEGQPRWQGFDWQQACRLQSVSVLATAGMRLAEQQDPVASVALWQEVQQALAGLLGPAVAIDARTLTGFEEGFYAWLAARARLGRSDMGIVEMGGASSQVAFPCPACDRADDAVQQVRLEGQTLDFYSYSLLGLGQDEAPKVLGVPHACRYGAGVKDPNWQLGQCQAQLPLTLGRALKDPYNFQGQGQGGYRQVPTEKAGVKDWLLTGAFQYNTPDQLDSCCLNQGQCYQPSTACFRVAYLPLYLDSLGVDPHSPDLDVSWTLGAVLCRNEQCLAPSKPPCRWRKAGCLAPSVGDGRPEGRPGQQPGGVQHRQH | – | – | – | – | – | – | – | – | – | – | 68%
7 | CRC25085: Acid phosphatase (Class A), accession WP_092747651.1, SEQ ID NO:21 (protein, listed as Acinetobacter boissieri) LEQSNSFLQLAQVPDSLAIVPAPPAYNSVDFLRDKAAYDQAKSLVGTERWKVAAEDADLSDANIGKPFSQALGIEISPQNTPITYEILRKLRTDAGNYATKAAKEHYMRLRPFMFFNSHTCTPNDEANLSKNGAYPSGHTTIGWSSALVLAEIRPERQNEILQRGYEYGQSRVICGVHWQSDVDAGRITGSAIVARLHADKAFTKMLEEAKQEIQRKTK | 0.23 | 0.20 | 0.5 | 0.6 | 0.8 | 0.9 | 0.9 | 1.0 | 0.8 | 0.9 | –
8 | CRC25084: Acid phosphatase (Class A), accession WP_088823167.1, SEQ ID NO:20 (protein, listed as Acinetobacter apis) ADSNNSFLQLNQVPDSLKIVPAPPAFNSVDFLRDKAAYDQARSLVGTARWQQAAVDADLSDANIGKSFSEAFGVEISPTNTPVTYEILRKLRTDAGGYATKTAKEHYMRMRPFVFFNSHTCTPNDEASLSKNGAYPSGHTTIGWSSALILAEIRPDRQNEILERGYQYGQSRVICGVHWQSDVDAGRITGSAIVARLHADKDFAKTLEDAKREIQKKIK | 0.20 | 0.17 | 0.4 | 0.6 | 0.6 | 0.9 | 0.9 | 1.0 | 1.0 | 0.9 | –
9 | CRC25099: Acid phosphatase (Class A), accession WP_195761705.1, SEQ ID NO:23 (protein, listed as Pantoea sp.) LQSSGFLTAETAPDSLAILPPPPAENSVTFQSDKAQYEAGHVLRNVARTELASKDADYKNFGQAFSAAFGMEISESHTPVLYHLLSEVLQDSHDFAMRGAKDHYKRVRPFVIYKDSTCTPDKDKSMSTTGSYPSGHASFGWAAALILAEINPSRETEIIRRGYDFGESRVVCGAHWQSDVENGRIMGATVVASLHANAKFAELLSQAKNEFATLSAQDSK | 1.05 | 0.93 | 0.0 | 0.1 | 0.3 | 0.7 | 0.8 | 1.0 | 0.8 | 0.5 | –
